According to US20020132977A1 (Harvard, published 2002):

Target: T1, GFP-tagged p73 (human, UniProt O15350 1-636)
T1 construct: also called GFP-p73; not shown: GFP (pEGFP vector)
T1 sequence: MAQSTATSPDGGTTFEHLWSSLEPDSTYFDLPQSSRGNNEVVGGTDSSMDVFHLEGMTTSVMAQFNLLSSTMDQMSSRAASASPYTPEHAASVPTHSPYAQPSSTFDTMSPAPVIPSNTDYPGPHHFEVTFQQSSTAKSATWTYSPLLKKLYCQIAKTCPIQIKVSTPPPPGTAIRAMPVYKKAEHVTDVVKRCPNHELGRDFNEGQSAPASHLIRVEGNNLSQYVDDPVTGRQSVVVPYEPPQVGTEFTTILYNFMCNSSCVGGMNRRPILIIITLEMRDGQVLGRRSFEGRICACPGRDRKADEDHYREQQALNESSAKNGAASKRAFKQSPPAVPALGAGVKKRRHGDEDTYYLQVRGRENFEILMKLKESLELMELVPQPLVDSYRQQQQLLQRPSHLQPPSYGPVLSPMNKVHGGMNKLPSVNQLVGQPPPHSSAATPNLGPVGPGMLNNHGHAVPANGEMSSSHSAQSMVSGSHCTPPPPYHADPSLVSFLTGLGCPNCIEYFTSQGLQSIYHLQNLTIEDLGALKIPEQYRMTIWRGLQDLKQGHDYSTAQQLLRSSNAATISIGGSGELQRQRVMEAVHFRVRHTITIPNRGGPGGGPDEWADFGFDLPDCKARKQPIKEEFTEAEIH
Test: anti-Flag IP, anti-GFP Western

B1: p73β (p53aa319-364) (other)
chain: MAQSTATSPDGGTTFEHLWSSLEPDSTYFDLPQSSRGNNEVVGGTDSSMDVFHLEGMTTSVMAQFNLLSSTMDQMSSRAASASPYTPEHAASVPTHSPYAQPSSTFDTMSPAPVIPSNTDYPGPHHFEVTFQQSSTAKSATWTYSPLLKKLYCQIAKTCPIQIKVSTPPPPGTAIRAMPVYKKAEHVTDVVKRCPNHELGRDFNEGQSAPASHLIRVEGNNLSQYVDDPVTGRQSVVVPYEPPQVGTEFTTILYNFMCNSSCVGGMNRRPILIIITLEMRDGQVLGRRSFEGRICACPGRDRKADEDHYREQQALNESSAKNGAASKRAFKQSPPAVPALGAGVKKKPLDGEYFTLQIRGRERFEMFRELNEALELKDAQAGKEPGGSRAQQQQLLQRPSHLQPPSYGPVLSPMNKVHGGMNKLPSVNQLVGQPPPHSSAATPNLGPVGPGMLNNHGHAVPANGEMSSSHSAQSMVSGSHCTPPPPYHADPSLVRTWGP
notes: range 1-344;range 391-C-terminus; also called p73 chimera with OD of p53; Flag-tagged p53-p73 chimera with switched OD; not shown: Flag tag
Does B1 bind?
Result: no binding
